In series [1] the test system is HEK-Blue™ IL-2 cells. Nature of the series: HEK-Blue IL2 reporter assay (SEAP, OD630). The format is cell-based. As to conditions: Table 5C. The protocol: Recombinant MMP9 and/or MMP2 (R&D Systems) was first activated with p-aminophenylmercuric acetate and this activated protease or equivalent amount of activating solution without the protease was used to digest or mock digest the fusion protein for 1 hr, 2 hr, 4 hr and overnight (18-22 hr) at 37 C. Cleavage assays are set up in TCNB buffer: 50 mM Tris, 10 mM CaCl2), 150 mM NaCl, 0.05% Brij-35 (w/v), pH 7.5. Digested protein was aliquoted and stored at −80° C. prior to testing. Aliquots of digests were subsequently analyzed by SDS-PAGE followed by Western blotting to evaluate the extent of cleavage. Digests were also assessed in functional assays such as CTLL-2 proliferation and HEK-Blue Interleukin reporter assays. As shown in FIGS. 2A-E, essentially complete cleavage by MMP9 protease of the fusion proteins with functional site is seen after overnight incubation. In contrast, proteins containing a scrambled MMP cleavage site are not cut (FIG. 2E). HEK-Blue™ IL-2 cells are specifically designed to monitor the activation of the JAK-STAT pathway induced by IL-2. Indeed, stimulation with human or murine IL-2 triggers the JAK/STAT5 pathway and induces secreted embryonic alkaline phosphatase (SEAP) production. SEAP can be readily monitored when using QUANTI-Blue™, a SEAP detection medium. These cells respond to human and murine IL-2. For the HEK Blue assay, untreated and digested samples are titrated and added to 50 000 HEK Blue cells per well in 200 ul medium in a 96-well plate and incubated at 37C in 5% CO2 for 20-24 hr. The following day, levels of SEAP are measured by adding 20 uL of cell supernatant to QuantiBlue reagent, followed by 1-3 h incubation at 37C and reading absorbance at 630 nm. FIGS. 3C-J, 3Q-Y and Table 5B-5C show results obtained from IL2 fusion proteins tested in HEK Blue IL2 assay.

For series [2], the system named is B16F10 melanoma. Nature of the series: In vivo efficacy of retention linker IL-2 drugs in B16F10 syngeneic model (Example 17). On the set-up: species or system mice. The note with it: for TGI (%) D 15: 10 mg/kg IV Q3D; for TGI (%) D 20: 10 mg/kg, 7 days following the fifth dose. Here is the method:
In a first efficacy study, C57BL/6 mice were subcutaneously inoculated with B16F10 melanoma cells and when the average tumor volume reached on average 70-90 mm^3, animals were randomized into 5 groups based on tumor volumes (n=6 mice per treatment group). Mice were dosed intravenously every 3 days (Q3D) for a total of 5 doses according to following design:
In a second efficacy study in the same model, C57BL/6 mice were subcutaneously inoculated with B16F10 melanoma cells and when the average tumor volume reached on average 70-90 mm^3, animals were randomized into 5 groups based on tumor volumes (n=6 mice per treatment group). Mice were dosed intravenously every 3 days (Q3D) for a total of 5 doses according to following design:
On Day 20, mice received an additional dose of drug, animals were sacrificed 24 hrs later and tissues and blood (processed to serum) were collected and stored at −80C for further testing. […] This is most likely due to the higher levels of both circulating drugs in serum and resident drug in TME, which can exert prolonged anti-tumor activity even after an extended dosing holiday.

Series [3] is described as follows: Full-length drug levels in serum by ELISA. It is filed as in vivo, mice. The note with it: for drug levels in serum relative to Construct B: 10 mg/kg cohort, 24 hrs after dosing. Here is the method:
(§1) We developed an ELISA assay to detect and quantify fusion proteins comprising IL-2 and IL-2Rα moieties. Wells of a 96-well plate are coated overnight with 100 uL of a rat anti-mouse IL-2 monoclonal antibody (JES6-1A12; ThermoFisher) at […] in PBS. After washing, wells are blocked with TBS/0.05% Tween 20/1% BSA, then fusion proteins and/or unknown biological samples are added for 1 hr at room temperature. After washing, an anti-mouse IL-2Rα biotin-labelled detection antibody (BAF2438, R&D systems) is added and binding is detected using Ultra Strepavidin HRP (ThermoFisher). The ELISA plate was developed by adding the chromogenic tetramethylbenzidine substrate (Ultra TMB, ThermoFisher). The reaction is stopped by addition of 0.5M H2SO4 and the absorbance is read at 450-650 nm.
Additional serum samples collected at Day 17 (Construct B 20 mg/kg) and Day 21 (Construct Y 20 mg/kg), 4 days and 8 days respectively after the last IV injection, were assayed for full-length IL-2 fusion drug.

The test system of series [4] is heparin. Description: IL-2 fusion protein plate binding assay to Heparin-BSA conjugate. The note with it: pH 6 vs pH 7.5, plate assay. Here is the method:
96-well plates were coated with 25 ug/mL of Heparin-BSA conjugate (provided by Dr. Mueller, Boerhinger Ingelheim) or control BSA for 18-22 h at room temperature on shaker (350 rpm). After washing, wells are blocked with PBS-0.05% Tween 20/1% BSA for 90 min, then fusion proteins are titrated in 1% BSA/PBS-0.05% Tween 20 pH 7.5 and/or pH 6 and added for 2 hr at room temperature with shaking. After washing, an anti-mouse IL-2 biotin-labelled detection antibody (JES6-5H4, ThermoFisher) is added and binding is detected using Ultra Strepavidin HIRP (ThermoFisher). The plate was developed by adding the chromogenic tetramethylbenzidine substrate (Ultra TMB, ThermoFisher). The reaction is stopped by addition of 0.5M H2SO4 and the absorbance is read at 450-650 nm.

The test system of series [5] is collagen. Nature of the series: IL-2 fusion protein collagen-agarose pulldown (immunoblot quantitation). The format is binding. As to conditions: for Bound: blot quantitation, collagen-agarose bound fraction; for Normalized: bound fraction relative to Construct B (fold); for Bound (% input): fraction bound to collagen-agarose; for binding to collagen-agarose beads vs control agarose beads: pulldown 18-22 h at 4C. The protocol: To test binding to collagen, a pulldown assay using agarose cross-linked to collagen (Sigma) was performed. IL-2 fusion proteins were incubated with collagen-agarose or control agarose beads for 18-22 h at 4C with gentle rotation in 1% BSA/PBS-0.05% Tween 20. After washing, proteins bound to the beads were eluted by resuspending beads in SDS sample buffer (Life Technologies). Bound proteins were then separated by SDS-PAGE on 4-12% BisTris gradient gel followed by immunoblotting with goat anti-mouse IL-2 polyclonal antibody (AF-402-NA; R&D systems). Donkey Anti-goat RP-conjugated antibody was used for detection (Jackson Immuno Research, West Grove, PA) and the blot was developed using the SuperSignal West Femto Maximum sensitivity detection reagent (ThermoFisher) following the manufacturer's recommendations.

Series [6] in a line: Drug and IL-2 levels in B16F10 tumor lysates by ELISA. The note with it: for IL-2 levels in treated tumors compared to Construct B treated tumors: free IL-2 calculated by subtraction, 24 h after last dose. It is filed as in vivo, mice. The protocol:
as §1
We developed a second ELISA assay to detect and quantify mouse IL-2 and/or fusion proteins comprising an IL-2 moiety. Wells of a 96-well plate are coated overnight with 100 uL of a rat anti-mouse IL-2 monoclonal antibody (JES6-1A12; ThermoFisher) at […] in PBS. After washing, wells are blocked with TBS/0.05% Tween 20/1% BSA, then fusion proteins and/or unknown biological samples are added for 1 hr at room temperature. After washing, an anti-mouse IL-2 biotin-labelled detection antibody (JES6-5H4, ThermoFisher) is added and binding is detected using Ultra Strepavidin HRP (ThermoFisher). The ELISA plate was developed by adding the chromogenic tetramethylbenzidine substrate (Ultra TMB, ThermoFisher). The reaction is stopped by addition of 0.5M H2SO4 and the absorbance is read at 450-650 nm. This assay is able to simultaneously detect both free mouse IL-2 as well as mouse IL-2 in the context of pro-drug fusion proteins.
We quantified levels of full-length IL2-IL2Ra fusion proteins and IL-2 in tumor samples collected during pre-clinical efficacy studies comparing Construct B and retention linker IL-2 fusion drugs (see example 17).
Tumors (n=3 per group) were collected 24 h after the last dose injection, flash frozen and stored at −80C until further processing. Tumor lysates were generated using tissue extraction reagent (ThermoFisher) supplemented with protease and phosphatase inhibitors and standard techniques and protein concentrations were determined using the BCA assay (Pierce).
Lysates were tested with in-house ELISAs to measure full-length IL-2 fusion proteins (IL-2 capture/IL-2Rα detection) and IL-2 fusion proteins+free IL-2 (IL-2 capture/IL-2 detection). Free IL-2 levels in tumor were calculated by subtracting drug levels from the drug+IL-2 data set. Results were normalized to 1 mg of tumor lysate and mean values are shown in FIG. 15C-H. Levels of Construct CC (20 mg/kg dose) in tumor are roughly 3-fold higher compared to Construct B levels, despite Construct B being dosed at 40 mg/kg (FIG. C). […] Likewise, IL-2 levels in Construct CC, Construct GG and Construct II treated tumors are elevated compared to Construct B treated tumors (FIG. 15E/H). This implies that next generation retention linker technology is able to retain in TME both full-length drug and released IL-2 post-cleavage.

The mark [7] stands for this setting: cleaved with MMP9, read-out: +MMP EC50.

Numbering of substitutions follows the chain as printed. In names and notes the source's numbering stands. Several values for one entry are separate records, joined by “and”; a condition that tells them apart may be missing. Equal values may be shown once. Read-outs that look alike come from different tables or passages of the source.

B1: Construct Y: SEQ ID NO 809: m IL2(C140S)-VRIQRKKEKMKET-MMPcs1-2x(G4S)-mIL2Ra (1-215)-mu IgG1 Fc (protein)
chain: APTSSSTSSSTAEAQQQQQQQQQQQQHLEQLLMDLQELLSRMENYRNLKLPRMLTFKFYLPKQATELKDLQCLEDELGPLRHVLDLTQSKSFQLEDAENFISNIRVTVVKLKGSDNTFECQFDDESATVVDFLRRWIAFSQSIISTSPQVRIQRKKEKMKETGPLGVRGGGGGSGGGGSELCLYDPPEVPNATFKALSYKNGTILNCECKRGFRRLKELVYMRCLGNSWSSNCQCTSNSHDKSRKQVTAQLEHQKEQQTTTDMQKPTQSMHQENLTGHCREPPPWKHEDSKRIYHFVEGQSVHYECIPGYKALQRGPAISICKMKCGKTGWTQPQLTCVDEREHHRFLASEESQGSRNSSPESETSCPITTTDFPQPTETTAMTETFVLTMEYKIEGRMDGCKPCICTVPEVSSVFIFPPKPKDVLTITLTPKVTCVVVDISKDDPEVQFSWFVDDVEVHTAQTQPREEQFNSTFRSVSELPIMHQDWLNGKEFKCRVNSAAFPAPIEKTISKTKGRPKAPQVYTIPPPKEQMAKDKVSLTCMITDFFPEDITVEWQWNGQPAENYKNTQPIMDTDGSYFVYSKLNVQKSNWEAGNTFTCSVLHEGLHNHHTEKSLSHSPGK
In the case of B1, the concentration giving a half-maximal response (EC50) was 0.0109 nM in series [1] (setting [7]) and 1.23 nM in series [1] (uncleaved, read-out: −MMP EC50). Further, the “TGI (%) D 13” value in series [2] (20 mg/kg IV Q3D, 5 doses) is 77% and 76.59%. Further, the “drug levels in circulation relative to Construct B” value in series [3] (Construct Y 20 mg/kg Day 21 (8 days after last IV) vs Construct B 20 mg/kg Day 17 (4 days after)) is “more than 10 fold”. For the same molecule, the “heparin binding (qualitative)” value in series [4] was “bind heparin in dose-dependent manner and with higher affinity than Construct B”.

B2: Construct GG: SEQ ID NO 817: m IL2-SGG-KLWVLPK-MMPcs1-2x(G4S)-mIL2Ra(1-215)-mu IgG1 Fc (protein)
chain: APTSSSTSSSTAEAQQQQQQQQQQQQHLEQLLMDLQELLSRMENYRNLKLPRMLTFKFYLPKQATELKDLQCLEDELGPLRHVLDLTQSKSFQLEDAENFISNIRVTVVKLKGSDNTFECQFDDESATVVDFLRRWIAFCQSIISTSPQSGGKLWVLPKGPLGVRGGGGGSGGGGSELCLYDPPEVPNATFKALSYKNGTILNCECKRGFRRLKELVYMRCLGNSWSSNCQCTSNSHDKSRKQVTAQLEHQKEQQTTTDMQKPTQSMHQENLTGHCREPPPWKHEDSKRIYHFVEGQSVHYECIPGYKALQRGPAISICKMKCGKTGWTQPQLTCVDEREHHRFLASEESQGSRNSSPESETSCPITTTDFPQPTETTAMTETFVLTMEYKGCKPCICTVPEVSSVFIFPPKPKDVLTITLTPKVTCVVVDISKDDPEVQFSWFVDDVEVHTAQTQPREEQFNSTFRSVSELPIMHQDWLNGKEFKCRVNSAAFPAPIEKTISKTKGRPKAPQVYTIPPPKEQMAKDKVSLTCMITDFFPEDITVEWQWNGQPAENYKNTQPIMDTDGSYFVYSKLNVQKSNWEAGNTFTCSVLHEGLHNHHTEKSLSHSPGK
In the case of B2, in series [1] (setting [7]), the concentration giving a half-maximal response (EC50) stood at 0.0072 nM. In addition, in series [1] (uncleaved, read-out: −MMP EC50), the concentration giving a half-maximal response (EC50) stood at 0.14 nM. Besides, the “TGI (%) D 15” value in series [2] (5 doses) was 57% and 57.18%. The “TGI (%) D 20” value in series [2] is 64.70%. In series [3], the “drug levels in serum relative to Construct B” value is reported as “roughly 5 fold”. Also, in series [5], the Bound was 5191, the Normalized came to 2.5, the “Bound (% input)” value was found to be 0.7% and the “binding to collagen-agarose beads vs control agarose beads” value is listed as “specifically bound by collagen-agarose beads”. Also, the “drug level in tumor, comparison in 10 mg/kg dosing cohort” value in series [6] (10 mg/kg, tumors 24 h after last dose) is “highest levels”. Moreover, the “IL-2 levels in treated tumors compared to Construct B treated tumors” value in series [6] is recorded as “elevated”.

B3: Construct II: SEQ ID NO 819: m IL2-LHERHLNNN-MMPcs1-2x(G4S)-mIL2Ra(1-215)-mu IgG1 Fc (protein)
chain: B2 chain with G151L, G152H, K153E, L154R, W155H, V156L, L157N, P158N, K159N
Consider B3, for which the EC50 in series [1] (setting [7]) turned out to be 0.009 nM. Moreover, the EC50 in series [1] (uncleaved, read-out: −MMP EC50) was determined as 0.489 nM. Besides, the “TGI (%) D 15” value in series [2] (5 doses) was 57% and 57.68%. In series [2], the “TGI (%) D 20” value turned out to be 68.52%. Moreover, the “drug levels in serum relative to Construct B” value in series [3] is listed as approximately 3 fold. Also, in series [5], the Bound is 2277, the Normalized is listed as 1.4, the “Bound (% input)” value is recorded as 0.4% and the “binding to collagen-agarose beads vs control agarose beads” value is listed as “specifically bound by collagen-agarose beads”. Moreover, in series [6], the “IL-2 levels in treated tumors compared to Construct B treated tumors” value was “elevated”.

These data come from US20240043489A1, “Cytokine Prodrugs Comprising a Cleavable Linker” (Trutino Biosciences Inc., priority 2020, published 2024).
